Assay results as given in patent US20230094463A1 (TRUEBINDING, published 2023).
Positions count from the first letter of the chain named. Numbers in names are those of the source.

B1: F846C.1B2 (antibody, V domains shown)
VH: QIQLVQSGPELKKPGETVKISCKASGYTFTNYGMNWVKQAPGKGLKWMGWINTYTGEPSYADDFKGRFAFSLETSASTAYLQINNLKNEDMATYFCARWGGYAGDYYAMDFWGQGTSVTVSS
VL: NIWLTQSPSSLAVSAGEMVTMTCKSSQSVLYSSNQKNYLAWYQQKPGQSPKLLIYWASTRESGVPDRFTGSGSGTDFSLTISSVQAEDLAVYYCHQYLSSLTFGAGTKLELK
notes: also called 846.1B2
B2: F846C.2H3 (antibody, V domains shown)
VH: B1 VH with A103D, F111Y
VL: B1 VL with W3M, L4M, M18K, T22S, S78T, A86P
notes: also called 846.2H3
B3: F846C.1H12 (antibody, V domains shown)
VH: B1 VH with Y32F, M91I, F111Y
VL: NIMMTQSPSSLAVSAGQKVTMSCKSSQSVLYSSSQKNYLAWYQQKPGQSPKLLIYWASTRESGVPDRFSGSGSGTDFTLTISSVQPEDLAVYYCHQYLSSLTFGAGTKLELKR
notes: also called 846.1H12
B4: F846TC.16B5 (antibody, V domains shown)
VH: B1 VH with S59A, A103D, F111Y
VL: B3 VL with Q17E, S34N, S69T, P86A
notes: also called 846T.16B5
B5: F846C.1H5 (antibody, V domains shown)
VH: EVQLLESGGGLVKPGGSLKLSCAASGFTFSSYAMSWVRQTPEKRLEWVASISSGGDTYYPDSVKGRFTISRDNARNILYLQMSSLRSEDTAMYYCASYGNSLFDYWGQGTTLTVSS
VL: DVVMTQTPLSLPVSLGDQASISCRSSQSLVHNSGNTYLHWYLQRPGQSPNLLIYKVSNRFSGVPDRFSGSGSGTDFTLKISRVAAEDLGVYFCSQSTHVPPTFGGGTKLEIK
notes: anti-Gal3 antibody; also called 846.1H5
B6: 4A11.2B5 (antibody, V domains shown)
VH: QVQLQQSGPELVKPGASVKISCKASGYSFTNYYIHWVKQRPGQGLEWIGWIYPGSGNTNYNEKFKGKATLTADTSSSTTNMQLSSLTSEDSAVYYCSTAPGGFDVWGSGTTVTVSS
VL: DIVMTQAAFSNPVTLGTSASISCRSSKSLLHSDGITYLYWYLQRPGQSPQLLIYRMSNLASGVPDRFSGSGSGTDFTLRISRVEAEDVGVYYCAQMLEFPLTFGAGTKLELK
B7: F847C.11B1 (antibody, V domains shown)
VH: EVQLQQSGPELVKPGASVKISCKASGNTFTDHNMHWVKQSHGKSLEWIGYIYPYNGGTGYNQKFKSKATLTVDNSSSTVYMELRSLTSEDSAVYYCARGEYDYLAWFAYWGQGTLVTVSA
VL: EIVLTQSPASLSVTTGEKVTIRCITSIDIDDDMNWYQQKPGEPPKLLISEGNTLRPGVPSRFSSSGYGTDFVFTIENTLSEDVADYYCLQSDNKPLTFGAGTKLELKR
notes: anti-Gal3 antibody; also called 847.11B1
B8: F847C.4B10 (antibody, V domains shown)
VH: EVQLVETGGGLVKPGGSLKLSCAASGFTFSSYAMSWVRQTPEKRLEWVASISSGGSTYYPDSVKGRFTISRDNARNILYLQMSSLRSEDTAMYYCTRFTTVVEMDYWGQGTSVTVSS
VL: QAVVTQESALTTSPGETVTLTCRSSTGAVTTSNYANWVQEKPDHLFTGLIGGTNNRAPGVPARFSGSLIGDKAALTITGAQTEDEAIYFCALWYSNHLVFGGGTKLTVLR
notes: anti-Gal3 antibody; also called 847.4B10
B9: 7D8.2D8 (antibody, V domains shown)
VH: EVQLVESGGGLVKPGGSLKLSCAASGFTFSSYAMSWVRQTPEKRLEWVATISDGGIYTYYPDNVKGRFTISRDNAKNNLFLQMSHLKSEDTAMYYCVRDGGYWGQGTTLTVSS
VL: DVLMTQTPLSLPVSLGDQASISCRSSQSIVHSNGNTYLEWYLQKPGQSPKLLIYKVSNRFSGVPDRFSGSGSGTDFTLKISRVEAEDLGVYYCFQGSHVPLTFGAGTKLELK
B10: 15F10.2D6 (antibody, V domains shown)
VH: B9 VH with T28A, I56V, P61T, N63H, K76E, N77D, F80Y
VL: B9 VL with S32N, A105G
B11: F846TC.14A2 (antibody, V domains shown)
VH: QIQLVQSGPELKKPGETVKISCKASGYTFTNYGMNWVKQAPGKGLKWMGWINTYTGEPTYAGDLKGRFAFSLETSASTAYLQINNLKNEDTATYFCVRYTMDYWGQGTSVTVSS
VL: QAVVTQESALTTSPGETVTLTCRSSTGAVTTSNYANWVQEKPDHLFTGLIGGINNRVPGVPARFSGSLIGDKAALTITGAQTEDEAIYFCALWYSNHWVFGGGTKLTVL
notes: anti-Gal3 antibody; also called 846T.14A2
B12: F847.14H4 (847.14H4) (antibody, V domains shown)
VH: QIQLVQSGPELTKPGETVKISCKASGYTFTDYGMNWVRQAPGETLKWMGWINTYTGEPTYADDFKGRFAFSLESSASTAYLQINNLKNEDVATYFCARYPMDYWGQGTSVTVSS
VL: B11 VL with I53T, V57A, W98L
notes: anti-Gal3 antibody
B13: 13H12.2F8 (antibody, V domains shown)
VH: QIQLVQSGPELKKPGETVKISCKASGYTFTTYGMSWVKQAPGKGLKWMGWINTYSGVPTYADDFKGRFAFSLETSASTAYLQINNLKNEDTATYFCAVPYEYDGAYWGQGTLVTVSA
VL: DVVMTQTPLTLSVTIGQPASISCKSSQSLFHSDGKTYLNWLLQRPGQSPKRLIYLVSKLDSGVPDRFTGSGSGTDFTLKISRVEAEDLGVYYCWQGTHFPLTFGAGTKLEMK
B14: 19D9.2E5 (antibody, V domains shown)
VH: B13 VH with S35G, A76T, T91M, V98T
VL: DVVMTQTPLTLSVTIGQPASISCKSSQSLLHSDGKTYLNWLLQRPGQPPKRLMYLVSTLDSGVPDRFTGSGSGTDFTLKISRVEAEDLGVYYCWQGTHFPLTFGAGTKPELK
B15: 4G2.2G6 (antibody, V domains shown)
VH: QIQLVQSGPDLKKPGETVKISCKASGYTFTTYVMSWVKQAPGKDLKWMGWINTHSGVPTYADDFKGRFDFSLETSANTAFLQINNLKNEDTATYFCTRDGNDGDAMDNWGQGTSVTVSS
VL: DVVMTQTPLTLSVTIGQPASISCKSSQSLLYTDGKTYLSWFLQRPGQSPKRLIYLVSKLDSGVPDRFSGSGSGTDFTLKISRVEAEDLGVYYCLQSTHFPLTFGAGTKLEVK
B16: F847C.10B9 (antibody, V domains shown)
VH: QIQLVQSGPEVKKPGETVKISCKASGYIFTNYGMNWVKQAPGKGLKWMGWINTYTGEPTYTDDFKGRFAFSLETSASTAYLQINNLKNEDTATYFCAKFGNYVGAMDYWGQGTSVTVSS
VL: DIRMTQSPSSLSASLGDTITITCHASQNINVWLSWYQQKPGNIPKLLIYKASNLHTGVPSRFSGSGSGTGFTLTISSLQPEDIATYYCQQGQSYPYTFGGGTKLELK
notes: also called 847.10B9
B17: F847C.26F5 (antibody, V domains shown)
VH: B16 VH
VL: B16 VL with D1E, R3K, T5N
notes: also called 847.26F5
B18: F847C.12F12 (antibody, V domains shown)
VH: B16 VH with V11L, I28T, T61V, Q82R
VL: B16 VL with R3Q, M4V, T5I
notes: anti-Gal3 antibody; also called 847.12F12; 84712F12
B19: 3B11.2G2 (antibody, V domains shown)
VH: QIQLVQSGPELKKPGETVKISCKTSGYKFKTYVMSWVKQAPGKALKWMGWINTYSGVPTYADDFKGRFAFSLETSASTAYLEIINLKNEDTATYFCARDGNYGDPMDYWGQGTSVTVSS
VL: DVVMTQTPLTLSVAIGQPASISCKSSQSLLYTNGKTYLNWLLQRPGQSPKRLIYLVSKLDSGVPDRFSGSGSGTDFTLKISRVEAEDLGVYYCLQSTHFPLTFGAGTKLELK
B20: 24D12.2H9 (antibody, V domains shown)
VH: QVQLKQSGPGLVQPSQSLSITCTVSGFSLTSYGVHWVRQAPGKGLEWLGVIWSGGSTDYNAAFMSRLSISKDNSKSQVFFKMNSLQADDTAIYYCAKSPDGYDVAWFGYWGQGTLVTVSA
VL: DIVMTQSHKFMSTSVGDRVSITCKASQDVRTAVAWYQQKPGQSPKLLIYWASTRHTGVPDRFTGSGSGTDFTLTLSNVQSEDLADYFCQQYSSYPWTFGGGTKLEIK

Legend:
[1] = molecular target: T1, Human GAL3 protein (TrueBinding, QCB200349 / QCB200352; R&D Systems, 8259-GA) (human, UniProt P17931 2-250); assay: blocking ELISA (GAL3 coated; antibody + biotinylated ITGa3)
T1 construct: also called human galectin-3
T1 sequence (P17931 2-250 limits assumed): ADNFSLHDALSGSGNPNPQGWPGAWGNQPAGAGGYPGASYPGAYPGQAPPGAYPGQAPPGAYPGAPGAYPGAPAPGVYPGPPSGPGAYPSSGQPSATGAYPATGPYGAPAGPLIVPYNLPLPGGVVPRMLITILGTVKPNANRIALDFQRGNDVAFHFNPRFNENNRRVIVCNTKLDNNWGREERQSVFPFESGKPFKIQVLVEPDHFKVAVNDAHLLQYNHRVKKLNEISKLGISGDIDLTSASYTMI

[2] = molecular target: T1, Human GAL3 protein (TrueBinding, …); assay: blocking ELISA (GAL3 coated; antibody + biotinylated ITGb3)
[3] = molecular target: T1, Human GAL3 protein (TrueBinding, …); assay: blocking ELISA (GAL3 coated; antibody + biotinylated ITGaV)
[4] = molecular target: T2, Human Galectin-3 protein (Acro Biosystems, GA3-H5129) (human, UniProt P17931 2-250); assay: ELISA, blocking of INSR binding to coated Gal3
T2 construct: Bought protein; also called Gal3-ECD-His; Gal3-His; not shown: linker-spaced 6-histidine tag
T2 sequence (P17931 2-250): as the sequence (P17931 2-250 limits assumed) above

[5] = molecular target: T2, Human Galectin-3 protein (Acro …); assay: SPR (Biacore T200), antibody captured, Galectin-3 as analyte
[6] = molecular target: T2, Human Galectin-3 protein (Acro …); assay: blocking ELISA (Gal3 coated; antibody 3 µg/mL + INSR)

Row | Binder | percent blockade of GAL3-ITGa3 interaction [1] [%] | percent blockade of GAL3-ITGb3 interaction [2] [%] | percent blockade of GAL3-ITGaV interaction [3] [%] | Gal3-INSR Blocking @ 3 µg/mL [4] [%] | Kd [5] [nM] | Gal3-INSR binding remaining, % of unblocked sample [6] [%] | reduction of Gal3-INSR binding (%) [6] [%]
1 | B1 | > 90 | > 90 | > 90 | – | – | – | –
2 | B2 | > 90 | > 90 | > 90 | – | – | – | –
3 | B3 | > 90 | > 90 | – | – | – | – | –
4 | B4 | > 90 | > 90 | > 90 | – | – | – | –
5 | B5 | > 90 | – | – | – | – | – | –
6 | B6 | – | – | – | 100 | 5.22 | < 5 | –
7 | B7 | < 35 | < 10 | < 30 | – | – | – | –
8 | B8 | > 90 | – | – | – | – | – | –
9 | B9 | – | – | – | 75 | 2.49 | – | –
10 | B10 | – | – | – | 82 | 2.06 | – | –
11 | B11 | > 90 | > 90 | > 90 | – | – | – | –
12 | B12 | < 35 | < 10 | < 30 | – | – | – | –
13 | B13 | – | – | – | 97 | 6.07 | – | –
14 | B14 | – | – | – | 100 | < 1 | < 5 | –
15 | B15 | – | – | – | 100 | < 1 | < 5 | –
16 | B16 | > 90 | > 90 | > 90 | – | – | – | –
17 | B17 | > 90 | > 90 | > 90 | – | – | – | –
18 | B18 | > 90 | > 90 | > 90 | – | – | – | –
19 | B19 | – | – | – | 96 | < 1 | < 5 | –
20 | B20 | – | – | – | 22 | 4.13 | – | ≤ 30
